In patent US9951123B2, “Anti-LPS O11 antibody” (priority 2013, dated 2018):
≈ marks a conversion by molar mass, not a printed value.

Experiments:
[1] = tested on: Pseudomonas aeruginosa clinical isolates No. 12 and No. 31; assay: Minimum inhibitory concentration of LVFX against clinical isolates; type: cell-based
[2] = tested on: Pseudomonas aeruginosa ATCC 29260; assay: Opsonophagocytic killing activity against Pseudomonas aeruginosa ATCC 29260; type: cell-based; conditions: antibody culture supernatant samples
Protocol: As a buffer for measurement, 0.1% gelatin/1% FBS/Hank's balanced salt solution (opsonization buffer) was prepared. HL60 as effector cells were cultured in 10% FBS-containing RPMI 1640 (Invitrogen) supplemented with 0.8% N,N-dimethylformamide for 5 or 6 days to prepare neutrophil-like, differentiated HL60 in an opsonization buffer. As the target bacteria, Pseudomonas aeruginosa ATCC 29260 cultured on MHA was prepared by suspending it in the opsonization buffer. As a complement, Baby Rabbit Serum (Cederlane) was prepared by dissolving it with ice-cold distilled water. Bacterial suspension (final concentration of 2×10^4 cells/ml) was mixed with antibody culture supernatant or purified antibody, allowed to stand at 4° C. for 30 minutes, and the prepared neutrophil-like, differentiated HL60 cells (final concentration of 4×10^6 cells/ml) and a complement (final concentration 10%) were added thereto, followed by incubation with gentle agitation at 37° C. for 1 hour under 5% CO2. After the incubation, each sample was spread on MHA, and colonies were counted on the next day.
Opsonophagocytic killing activity of each of cNo.76, c#1G5M, c#1G5, c#4C13KM, c#4C13, Meiji 1640, Meiji 1656, and 1BO11 hIgG1 against Pseudomonas aeruginosa ATCC 29260 was measured in accordance with the method of 1)-3-2. The opsonophagocytic killing activity was expressed in terms of 50% minimum growth inhibitory concentration.
In accordance with the method of 1)-3-2, the opsonophagocytic killing activities of h#1G5-H2/L2, h#1G5-H3/L3, h#4C13K-H2/L2, and h#4C13k-H3/L3 against ATCC 29260 were measured, and then compared to those of c#1G5 and c#4C13. The opsonophagocytic killing activity was expressed in terms of 50% minimum growth inhibitory concentration.

Molecule	MIC ([1]; No. 12 strain) [µg/mL]	MIC ([1]; strain No. 31) [µg/mL]	opsonophagocytic killing activity in screening [2]
C[C@H]1COc2c(N3CCN(C)CC3)c(F)cc3c(=O)c(C(=O)O)cn1c23 [LVFX, levofloxacin]	> 128	32 (≈ 88.6 µM)	
No.76: mouse monoclonal anti-LPS O11 antibody prepared using pJON mIgG2a and pJON mIgκ; variable regions SEQ ID NO: 8 and 4 (antibody, V domains shown, Heavy chain variable of No.76; Light chain variable of No.76) VH: MGWSCIILFLVAAATGVHSQVQLQQPGAELVKPGASVNLSCKSSGYTFTNYWINWVKQRPGQGLEWIGDIYPGTSTTNYNEKFKNKATLTVDTSSSTAYMQLSSLTSDDSAVYYCTRIYYDYDGYYFDYWGQGTTLTVSS VL: MESQTLVFISILLWLYGADGNIVMTQSPKSMSMSVGERVTLSCKASENVGTSVSWYQEKPEQSPKLLIFGASNRYTGVPDRFTGSGSATDFTLTISSVQAEDLADYHCGQSYSYPYTFGGRTKLEIKRA			strong opsonophagocytic killing activity
#1G5: anti-LPS O11 monoclonal antibody prepared using pJON mIgG2a-hIgG1 and pJON mIgκ; variable regions SEQ ID NO: 16 and 12 (antibody, V domains shown, Heavy chain variable of #1G5; Light chain variable of #1G5) VH: MGWSCIILFLVAAATGVHSQVQLQQPGAELVKPGASVKLSCKASGYTFTSYWINWVKQRPGQGLEWIGNIYPGSSSINYNEKFKSKATLTVDTSSSTAYMQLSSLTSDDSAVYYCSRTIYNYGSSGYNYAMDYWGQGTSVIVSS VL: MESQTLVFISILLWLYGSDGNIVMTQSPKSMSMSVGERVTLSCKASENVGNSVSWYQQKAEQSPKPLIYGASNRYTGVPDRFTGSGSATDFTLTISSVQAEDLADYHCGQSYSYPYTFGGGTKLEIKRA			strong opsonophagocytic killing activity
#4C12: anti-LPS O11 monoclonal antibody prepared using pJON mIgG2a-hIgG1 and pJON mIgκ; variable regions SEQ ID NO: 24 and 20 (antibody, V domains shown, Heavy chain variable of #4C12; Light chain variable of #4C12) VH: MGWSCIILFLVAAATGVQSQVQLQQPGAELVKPGASVKLSCKASGYTFTTYWINWMQQRPGQGLEWIGNIYPGTRSSNYNEKFKNKATLTVDTSSSTAYMQLNSLTSDDSAVYYCTRVYYDHVGYYFDYWGQGTTLTVSS VL: MESQTLVFISILLWLYGADGNIVMTQSPKSMSMSVGERVTLSCKASENVGVSVSWYQQKPEQSPKLLIYGASNRCTGVPDRFTGSRSATDFTLTVSNVQAEDLADYHCGQSYSYPYTFGGGTRLEIKRA			strong opsonophagocytic killing activity
